Test [1] addresses T1, complex formed between sCD4 and biotinylated HIV-1LAI gp120 (HIV-1 LAI (BRU); human, UniProt P03377 33-516; P01730 26-396).
T1 construct: also called b-LAI:sCD4
The experiment in a line: flow cytometry on human CCR5-bearing murine L1.2 cells (data not shown). A general note: In flow cytometry, cells or beads pass a laser one at a time.

The target in test [2] is T2, recombinant soluble human CD4 (human, UniProt P01730 26-396).
T2 construct: also called sCD4; soluble CD4
The description is as above.

This is an account of results in patent US7858298 (PROGENICS PHARMACEUTICALS, dated 2010).

B1: human CCR5 expressed on the cell surface (receptor)
chain: not shown
notes: whole, on cells; also called C-C CKR-5; CKR-5
For B1, the binding result in test [1] and in test [2] was “no binding” in each case.
